Test results from article PMC3709506, “Comparative cross-linking and mass spectrometry of an intact F-type ATPase suggest a role for phosphorylation” (Nature Communications, 2013).

T1: chloroplast ATP synthase (cATPase) subunit γ (Spinacia oleracea, UniProt P05435 42-364)
T1 construct: ATP synthase gamma chain, chloroplastic, Spinacia oleracea; also called γ-subunit; source: purified from spinach leaves as part of the intact F1FO chloroplast ATP synthase
T1 sequence (looked up): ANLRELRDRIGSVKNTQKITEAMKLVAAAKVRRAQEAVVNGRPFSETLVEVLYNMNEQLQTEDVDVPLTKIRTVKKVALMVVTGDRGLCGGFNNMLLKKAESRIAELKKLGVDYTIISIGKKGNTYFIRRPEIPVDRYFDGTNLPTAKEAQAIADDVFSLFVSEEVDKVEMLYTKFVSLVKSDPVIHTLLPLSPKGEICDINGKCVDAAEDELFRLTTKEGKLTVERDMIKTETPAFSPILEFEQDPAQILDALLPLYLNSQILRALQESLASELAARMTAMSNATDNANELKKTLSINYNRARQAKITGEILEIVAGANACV

B1: cATPase subunit ε, dephosphorylated enzyme (natural protein, Spinacia oleracea, UniProt P00833 1-134, looked up)
chain: MTLNLCVLTPNRSIWNSEVKEIILSTNSGQIGVLPNHAPTATAVDIGILRIRLNDQWLTLALMGGFARIGNNEITILVNDAERGSDIDPQEAQQTLEIAEANLRKAEGKRQKIEANLALRRARTRVEASNTISS
notes: ATP synthase epsilon chain, chloroplastic, Spinacia oleracea; as m4 but treated with phosphatase; The whole complex was treated with the phosphatase; also called ε (dephosphorylated form)
B2: chloroplast ATP synthase (cATPase) subunit ε, untreated enzyme (natural protein, Spinacia oleracea, UniProt P00833 1-134, looked up)
chain: B1 chain
modifications: phosphosite identified at S13
notes: ATP synthase epsilon chain, chloroplastic, Spinacia oleracea; also called ε-subunit; source: purified from spinach leaves as part of the intact F1FO chloroplast ATP synthase
B3: chloroplast ATP synthase (cATPase) subunit II, untreated enzyme (natural protein, Spinacia oleracea, UniProt P31853 76-222, looked up)
chain: EEIEKASLFDFNLTLPIIMAEFLFLMFALDKIYYTPLGDFMDKRDASIKEQLSGVKDTSSEVKQLEEQANAVMRAARAEISAALNKMKKETQLEVEAKLAEGRKKIEVELQEALGSLEQQKEDTIKSLDSQISALSDDIVKKVLPVS
modifications: phosphosites identified at S122, S211
notes: ATP synthase subunit b' (CF0 subunit II), chloroplastic, Spinacia oleracea; also called stator subunit II; peripheral stalk subunit II; source: purified from spinach leaves as part of the intact F1FO chloroplast ATP synthase
B4: cATPase subunit II, dephosphorylated enzyme (natural protein, Spinacia oleracea, UniProt P31853 76-222, looked up)
chain: B3 chain
notes: ATP synthase subunit b' (CF0 subunit II), chloroplastic, Spinacia oleracea; as m6 but treated with phosphatase; The whole complex was treated with the phosphatase; also called II (dephosphorylated form)
B5: chloroplast ATP synthase (cATPase) subunit β, untreated enzyme (natural protein, Spinacia oleracea, UniProt P00825 1-498, looked up)
chain: MRINPTTSDPGVSTLEKKNLGRIAQIIGPVLDVAFPPGKMPNIYNALIVKGRDTAGQPMNVTCEVQQLLGNNRVRAVAMSATDGLTRGMEVIDTGAPLSVPVGGATLGRIFNVLGEPVDNLGPVDTRTTSPIHRSAPAFTQLDTKLSIFETGIKVVDLLAPYRRGGKIGLFGGAGVGKTVLIMELINNIAKAHGGVSVFGGVGERTREGNDLYMEMKESGVINEQNIAESKVALVYGQMNEPPGARMRVGLTALTMAEYFRDVNEQDVLLFIDNIFRFVQAGSEVSALLGRMPSAVGYQPTLSTEMGSLQERITSTKEGSITSIQAVYVPADDLTDPAPATTFAHLDATTVLSRGLAAKGIYPAVDPLDSTSTMLQPRIVGEEHYEIAQRVKETLQRYKELQDIIAILGLDELSEEDRLTVARARKIERFLSQPFFVAEVFTGSPGKYVGLAETIRGFQLILSGELDSLPEQAFYLVGNIDEATAKAMNLEMESKLKK
modifications: phosphosites identified at S8, T54
notes: ATP synthase subunit beta, chloroplastic, Spinacia oleracea; K498 is called the carboxy-terminal residue; Three copies stand in the F1 head (α3β3); also called β-subunit; source: purified from spinach leaves as part of the intact F1FO chloroplast ATP synthase
B6: cATPase subunit β, dephosphorylated enzyme (natural protein, Spinacia oleracea, UniProt P00825 1-498, looked up)
chain: B5 chain
notes: ATP synthase subunit beta, chloroplastic, Spinacia oleracea; as m2 but treated with phosphatase; The whole complex was treated with the phosphatase; also called β (dephosphorylated form)
B7: cATPase subunit α, dephosphorylated enzyme (natural protein, Spinacia oleracea, UniProt P06450 1-507, looked up)
chain: MATIRADEISKIIRERIEGYNREVKVVNTGTVLQVGDGIARIHGLDEVMAGELVEFEEGTIGIALNLESNNVGVVLMGDGLMIQEGSSVKATGRIAQIPVSEAYLGRVINALAKPIDGRGEITASESRLIESPAPGIMSRRSVYEPLQTGLIAIDAMIPVGRGQRELIIGDRQTGKTAVATDTILNQQGQNVICVYVAIGQKASSVAQVVTNFQERGAMEYTIVVAETADSPATLQYLAPYTGAALAEYFMYRERHTLIIYDDLSKQAQAYRQMSLLLRRPPGREAYPGDVFYLHSRLLERAAKLSSLLGEGSMTALPIVETQAGDVSAYIPTNVISITDGQIFLSADLFNAGIRPAINVGISVSRVGSAAQIKAMKKVAGKLKLELAQFAELEAFAQFASDLDKATQNQLARGQRLRELLKQPQSAPLTVEEQVMTIYTGTNGYLDSLELDQVRKYLVELRTYVKTNKPEFQEIISSTKTFTEEAEALLKEAIQEQMERFLLQEQA
notes: ATP synthase subunit alpha, chloroplastic, Spinacia oleracea; as m1 but treated with phosphatase; The whole complex was treated; also called α (dephosphorylated form)

Tests used:
Settings in all cases: both partners purified
[1] = target: B6; experiment: cross-linking; comparative: dephosphorylated cATPase (calf intestinal alkaline phosphatase, 37 °C) cross-linked with 2.5 mM deuterated BS3, untreated cATPase with non-deuterated BS3, pooled; areas of extracted ion chromatograms of heavy and light cross-links compared
[2] = target: B7; experiment: as above
[3] = target: T2, chloroplast ATP synthase (cATPase) subunit α, untreated enzyme (Spinacia oleracea, UniProt P06450 1-507, phosphosites identified at S127, Y196, S369, T442); experiment: cross-linking; untreated cATPase, 1:1 mixture of 2.5 mM BS3-d4 and 2.5 mM BS3-d0, 1 h at room temperature; NuPAGE gel, in-gel digestion, LC-MS/MS, MassMatrix search, manual validation
T2 construct: ATP synthase subunit alpha, chloroplastic, Spinacia oleracea; Three copies stand in the F1 head (α3β3); also called α subunit; source: purified from spinach leaves as part of the intact F1FO chloroplast ATP synthase

[4] = target: B5; experiment: as above
[5] = target: T1, chloroplast ATP synthase (cATPase) …; experiment: as above

Binder: B1
binding result [1]: binds | binding result [2]: binds

Binder: B2
binding result [3]: binds | binding result [4]: binds | binding result [5]: binds

Binder: B3
binding result [3]: binds | binding result [4]: binds

Binder: B4
binding result [1]: binds | binding result [2]: binds

Binder: B5
binding result [3]: binds

Binder: B6
binding result [2]: binds

Binder: B7
fold decrease of cross-link intensity against the untreated enzyme (two cross-links, β loops to α C-terminal domain) [1]: > 10 fold | fold decrease of the intensity of the K378-K498 cross-link against the untreated enzyme [1]: ~5 fold
